Test results: a protein production outcome set (Wang et al. 2014)

Test: label from the status in PepcDB records
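Further: failed if final PepcDB status was selected cloned or expressed and not failed if soluble or beyond.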

Sequence | protein production
MPQHDKSRLVRIDTGPMINPVAGKPSRPIAGDASFRTVTAFEGGQGKVESGVWESTSGSFQSNTTGYIEYCHIIEGEARLVDPDGTVHAVKAGDAFIMPEGYTGRWEVDRHVKKIYFVTHLA | not failed
RRCQVHLLDDRKLELLVQPKLLAKELLDLVASHFNLKEKEYFGIAFTDETGHLNWLQLDRRVLEHDFPKKSGPVVLYFCVR | failed
MYFLYVGIFGALGGMCRYAMNLWLGGGDFPSATLAVNLIGCFLLAFIMPFLAEKSRISLVLLNGIGTGFIGAFTTFSAFSVDTIELLQQGEVVLAISYILVSLIGGLVMVKFGRRFSNKLLRRGAHHVD | failed
GTQAGVPAWSTIKVPISIAALRANPGNDVLMRQAITVSDNDAARALWDSLGSPREKVGAVLAQGGDPQTQVNDQPGMRTFC | failed
MGDSMSLDWDKLRIFHAAAEAGSFTHAADKLHLSQSAISRQVSSLEQDVGIKLFHRHARGLILTEQGEMLYRTAHDVLMKLESVKAQLSETTDKPSGKLRITTTVGLGQGWLTDKIQEFMSLYPEIQVQLILDNEELDVNMRHADCAIRLRQPQQSDLIQRKLFTVHMHVYAAPSYINKYGEPQSLDDLDNHRIITFGEPAPNYLLDVNWLEIAGRDSDNPRISHLQINSQTSIKRACLLGIGIAMLPDYIVGRDPGLIQLPISADIPSFDTYFCYPDELKNAAKLKVFRDYIVAKARNWNF | failed
MKSEMVLSFMATLAQEESHTKSEIMNASIEMRFRRGIFLTPTLLGYDHDEDGNLVVNEGEAKIVRLIFMMYLNGCTCQEIADTMTELGCETKKGNTVWSPGSILQILQNERHCGDVLARKTYTPNYLNHKSKKNMQNRPQYRKRNHHEAIISRDDFIAVQRLISNAKYGNKGILPELKVISNGVLKGFVSINPRWAGFKENDYISASLSVYDQMEQLSPSASSVEVQSGDFDLRGYEIARSQFFDGTDRITVTFSLNDIKFSTAAVRKLNSTLVELLLHPNKHLFAVRTASQAHRNAMQWAKKRGELSVPRAVSGTAFMPTVYALLGWNTDCRYRITGIRRGNGNDAVLLFNLEETEIFIPSDVIDEQQTSDARTDVKPFTDNQKKNVRAYPPDWADTFGSNYYCHAQAHELAGFNSRDVISNEAVAYKDSDIQVTSPDEVEKNIEQLMSDMKENSNELEHHHHHH | failed
MKKIFYISLGFISLGIGIAGIVLPVVPTTPLVLLSAFCFSRSSEKFDIWLRQTKVYKYYAADFVESRSIAPARKKSMIWQIYILMGISIYFAPLMWLKLGLLIGTIVGTYVLFYVVPDKIDE | failed
MRSGFRRCCPAIQRFKKVQRILLIVLFLNLAVAFAKIIYGTLTSTLSMTADGYHSLFDGVSNIVGLVGSFIAARPPDKEHPYGHQKYETIASIFIALLLLYVGVEIFRHALDRFLIRSVPEVTAISFLVIIGTMCINYLVTRYEYRQGLALRSQVLIADSLHTKSDIYVSLSVILSLAAVKLGFPLLDPLIAVLISFLIFRAGFRIMKESSKVLLDMSRLEEDEICNLVLGVEGVLGCHKIRTRGGMGDIRIDMHVLVQADLTLEEAHLISHRVSKMLKAEYNDVTDVVVHLEPALPQGSYSKKTT | failed
SCDSIREDLPRCELWLEFVFDYNMEYADAFNPQVKSVDVLVFDSDDKLLFTKSVKVAALVGGNRMSLTDELDFGSYKVLTVGSLSDRFRLSDNAGNKLVPGTTTLQQVIVSLKRETGGVNFEFQHLYFGEVVEVDHLPSNTNHKIYPVNLIRDTNRFNLALMGYEENKVDGTQYTFEIQAPENAVYSWENEPTGQGPITYVPYYTGPGEISDVVMSARLNTMRLLNRSGWDYKFIIRDANTEAEVWSYNLMTLLSIARPVSRYDGTELPFQEYLDRQSEWNLVFTVVEKNGGGFLQIGIVVGTWIHWLHGMEV | not failed
MRRGRGKGKKQNASAREDRGSGDEEKIPAYRRRGRPQKPMKDDFEEEEEEDDEEMVEKMEVEDEDEEIDDGSVTSKDLKERKRKMSNGSNTDLTEEENGLGSKPNTDDSTRSTSIGFRQNGSRRKSKPRRAAEAVVECNGV | failed
MELLNVLAAAFGAFALGSVWYMVLAEPWMQDAKVPRGPDGRPEGGMTPGIFAASFVLQLIVAGMMRHVFALSGIDSPGAGIVAGIGVGLFFIAPWITLNNLYGMRPLRLSLIDGGYATLACAVMGLILTLF | failed
MPTLKVAYIPEHFSTPLFFAQQQGYYKAHDLSIEFVKVPEGSGRLINLLNSNEVDIAIGLTEAFIADIAKGNENIHVLDTYVKSPLLWAVSTGSNRDDVTDAKQLKRIGVSRIGSGSYVMSFVLAHQLGVPSFDQFQVLSNFKNLRDSVNLKDGVEGSDAFMWEYFTSKKYYDNHEIKQIDQIYTPWSSWVVATSSDSLQAKSDVIKNFIDAVNQGIQYYNEHVDEAIEYISSNLDYSAEDAKEWTKTVEFNSRIGKTPLDWDTIVVKTKDTLKLAGVLAESDDVILKRLNSNVKKTNL | not failed
MTLNIYTEEWAPISFSVDGKPDGLAVQVVQEIQKRIDNQDPIKVVPWARGWKIITEQPNTVLFTMTRTAERERMFSLIGPVAVGTTNFYALKNSNLKINLEHHHHHH | not failed
MTWQQFKQQYLVRFWAPMPAVIAAGILSTYYFGLTGTFWAVTGEFTRWGGHLLQLVGANPETWGYFKVIGLQGSPLDRIDGMMIIGMFGGCIAAALWANNVKLRMPQSRIRIAQALIGGIIAGFGARLAMGCNLAAFFTGIPQFSLHAWFFALATAAGSYFGARFTLLPMFRIPVKLKKVDKASSVKQDENQARLRFRIGMLVFAAIIGWGLLTMFNAPKLGIAMLCGVGFGLLIERAQICFTSAFRDMWITGRTHMAKAIILGMAVSAIGIYSYVQLGVPPKIMWAGPNAVIGGLLFGFGIVLAGGCETGWMYRAVEGQVHFWWVGLGNVLGSTLLAYYWDDLAQPLATNWDKVNLLTSFGDKGGLLVTYLLLALSFAAMLLWEKRFFARKAKRDEQLIAEAA | failed
MYSPIPPSLFQQIQPAYCGQEFILLRDNEEYKEIIVQAGRTYEISLMVESENSYIAWDFSLTQGKITMVIIFKTKYVTVNHLIAFSDD | failed
MSRSTRSDQNARIRQRLGQPESGWRQRWYTIIFEADTRPGRTFDIVLLVAIIASVAVVMLDSIQAIHARLGTVFTALEWLFTLLFTTEYIMRLSVVRRPLRYVFSFYGIIDFLSIIPTWASFFVPELAFLIDVRLLRLLRVFRILKLTVYFEEAEILMLALSNSRRKIFVFLGTVFIITVILGTIMYVVEGPTHGFTSIPVSMYWAIVTLTTTGFGDMVPKTPIGQFITSITILLGYGIIAFPTGIVGAELAASIIRRPLTTRSCEHCLTEGHEPDATFCKHCGTALPEYRTELATDRRGDDGSRSR | failed
MSLAARLIRSSRSNTFGIITDYVSTTPYSVDIVRGIQDWANANGKTILIANTGGSSEREVEIWKMFQSHRIDGVLYVTMYRRIVDPESGDVSIPTVMINCRPQTRELLPSIEPDDYQGARDLTRYLLERGHRRIGYIRLNPILLGAELRLDAFRRTTSEFGLTENDLSISLGMDGPVGAENNYVFAAATEMLKQDDRPTAIMSGNDEMAIQIYIAAMALGLRIPQDVSIVGFDDFRTVTMALKPELTTAALPYYDLGREGAKWLNDLIAGEKIYPGSRVVSCKLVERSSAAFGEGHHHHHH | not failed
MSSDESSDGLEELQSLKALYGQQEQEKPAKIKRERYIPKASQAKELNYVEVPMEKVLFGDRQRLLTNLAKSVGQKLPNDDEDEQEENPGQAKPGDKRKAAWSDSDDEDLQVGDVKKATKHTGPLNHLRKDKSYKEYLTARFQRTLNQPKWAEKKVKNEDDEDVSSDEELLRTVGFIDRKARNSDLPQKTLNFKRVKDLNRATYAEGNATSIQFHPTSTAALVAGMNGLATIYAVDGQKNERLHNMRFKKFPLACSRIAPCGTRAFFGSVKPFYYSYDLLEAKESKLKLPGAMEFMHRFEVSPCGKFIVTAGKFGAIHLLTAKTNELLHSFKQEGKVKGFTWSSDSKRILVCGSTSNVSVLNLRQNLIEHIFMDDGCIHGESIQLSPNQRLLATGSQEGVVNIYDYESIFASKAPQPEKRFMNLRTAITDLQFNHSSELLAMCSSEAPNAFKLAHFPSATVYSNFPAQNEKVGFVTSMAFSPHSSFLAFATKGKQVPLFRLKYFKGY | failed
MTVEQNVLQQSAAQKHQQTFLNQLREITGINDAQILQQALKDSNGNLELAVAFLTAKNAKTPPQEET | not failed
MQEIMYLAPELVLVATGLVILLTGVFLSPQSKNILGYLATLGTLAAIFLTVKSFGLLTMEGFSVQYTIFSETLSIDALSQFFKLVFLAVALIVSIASIKYTENSDHTEEFYTLVLFATFGMMIVASANDLILLFCAFELASLATFALAGFEKQNARSLEGAMKYFVIGSVSAALMLFGLSFVYGATGTTSIPLIAQNPGLLTGNPIGIVAIVLLTAGFGFKMALVPFHMWAPDTYQGSPSVVSALLAAGSKKMGFVAAFRVFIIALAALQPDWQFMFTLLAVVTMTFGNVVAVAQTSVKRMLAYSSLAQAGYIAMAFAVMTPVALAGGIMYTLAHAFMKAGAFIAAAAVVWMITSEKTGNLDIPDHLDSFRGLGKRMPLAALCMTVFVFALAGIPPTAGFMAKFVLFSSTIQAGMTWLAVIAILNSALSLFYYARLVKYMYFMPPEGKTEKVSIPFPYAAALLVAVAGVLVMGLWPEPFVELAMKAAMVLVPF | failed
MPAFRVPRVRRAQHAEVALGAVLGVMLIGLSVLISRFHLQPVEGVTVLAQLADASLGHNWAFYVVQFATMILLALSANTSFGGLPVLLKLPARDNYLPHVFALKADRQVHRHGVLTLAGVVAALLVFSGGDTNTLVPLFAIGVFIGFTIAQVGMVRHWRAE | failed
MMRCLTITIMFFMFFFLSVIQKCKSETSKSGDYIIYMGAASSDGSTDNDHVELLSSLLQRSGKTPMHRYKHGFSGFAAHLSEDEAHLIAKQPGVLSVFPDQMLQLHTTRSWDFLVQESYQRDTYFTEMNYEQESEMHEGDTIIGFLDSGIWPEAQSFNDRHMGPVPEKWKGTCMRGKKTQPDSFRCNRKLIGARYYNSSFFLDPDYETPRDFLGHGTHVASIAAGQIIANASYYGLASGIMRGGSPSSRIAMYRACSLLGCRGSSILAAFDDAIADGVDVISISMGLWPDNLLEDPLSIGSFHAVERGITVVCSVGNSGPSSQSVFNAAPWMITVAASTIDRGFESNILLGGDENRLIEGFGINIANIDKTQAYPLIHARSAKKIDANEEAARNCAPDTLDQTIVKGKIVVCDSDLDNQVIQWKSDEVKRLGGIGMVLVDDESMDLSFIDPSFLVTIIKPEDGIQIMSYINSTREPIATIMPTRSRTGHMLAPSIPSFSSRGPYLLTRSILKPDIAAPGVNILASWLVGDRNAAPEGKPPPLFNIESGTSMSCPHVSGIAARLKSRYPSWSPAAIRSAIMTTAVQMTNTGSHITTETGEKATPYDFGAGQVTIFGPSSPGLIYETNHMDYLNFLGYYGFTSDQIKKISNRIPQGFACPEQSNRGDISNINYPSISISNFNGKESRRVSRTVTNVASRLIGDEDTVYTVSIDAPEGLLVRVIPRRLHFRKIGDKLSYQVIFSSTTTILKDDAFGSITWSNGMYNVRSPFVVTSKDDNDSER | failed
MVNLMILSGIVLLTCIISSKIFYKWGVPVLLVFIIIGMLFGSDGIGGIYFDNYNITYSLSSIALVFIMFYGGFCTEWKKARSVAIPSIMLSTLGVIITAGLTGLFCHFVLKTSIFEGLLLGCIVASTDAASVISILRSRNLKLKNNIDTLVEFESGSNDPTAYMLTSVMLIFITSNESVGIGLLGMIFKQIVFGVTVGLFLSKLAVFILRKVEFEIEGLYPIFTITVAILAYSISEFLGGNGYLSVFIAGIVMGNSKIPHKKSLNHFFDGLSWIMQIILFFMLGLLAFPSQLPSIAFEGIAISIFLILVGRPIAVFTILSWFKVPIKEQMFISWVGLRGAGSLVFAIYAITKTSAIENDIFHIIFFIALFSVAIQGTLIPWFAKKLDLICYEDDNHEDNMKNNIKDYIFEVKVGENNKVVNKAIMDSEIPDEILIVMIKRDNKVVIPKGFTIIKPNDTLVLTSENNEIMNSFLDEIR | failed
